Values quoted from earlier work, collected in publication PMC5751705.

How the values were obtained:
[1] = biological target: substance P (Homo sapiens) (UniProt P20366)
[2] = biological target: YopB (Yersinia pestis) (UniProt Q06114)
Chain of YopB (Yersinia pestis) (Q06114 whole entry): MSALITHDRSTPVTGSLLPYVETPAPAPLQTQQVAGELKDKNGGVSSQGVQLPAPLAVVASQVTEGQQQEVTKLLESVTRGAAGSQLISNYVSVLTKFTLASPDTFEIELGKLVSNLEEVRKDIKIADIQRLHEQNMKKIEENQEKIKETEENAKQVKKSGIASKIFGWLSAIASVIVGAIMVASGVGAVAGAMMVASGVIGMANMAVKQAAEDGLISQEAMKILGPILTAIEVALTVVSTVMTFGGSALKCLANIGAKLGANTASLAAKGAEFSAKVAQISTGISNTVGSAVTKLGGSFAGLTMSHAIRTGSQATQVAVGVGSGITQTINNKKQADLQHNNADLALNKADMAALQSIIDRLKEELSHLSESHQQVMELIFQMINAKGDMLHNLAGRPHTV

Chain of substance P (Homo sapiens) (P20366 whole entry, looked up): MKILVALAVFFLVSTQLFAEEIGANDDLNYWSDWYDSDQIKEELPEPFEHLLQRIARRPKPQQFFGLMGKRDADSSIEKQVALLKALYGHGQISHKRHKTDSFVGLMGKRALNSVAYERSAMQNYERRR
Chain of LcrV (P0C7U7 whole entry): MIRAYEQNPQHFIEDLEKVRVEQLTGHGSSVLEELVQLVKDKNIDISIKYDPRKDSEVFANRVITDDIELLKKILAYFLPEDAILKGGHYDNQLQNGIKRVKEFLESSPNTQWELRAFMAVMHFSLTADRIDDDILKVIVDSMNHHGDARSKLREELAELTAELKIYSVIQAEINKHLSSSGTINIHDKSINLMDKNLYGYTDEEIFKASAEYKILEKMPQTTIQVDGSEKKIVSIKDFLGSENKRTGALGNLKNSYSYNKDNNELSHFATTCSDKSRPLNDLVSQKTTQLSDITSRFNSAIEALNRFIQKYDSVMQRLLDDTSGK
Chain of NK1R (P25103 whole entry): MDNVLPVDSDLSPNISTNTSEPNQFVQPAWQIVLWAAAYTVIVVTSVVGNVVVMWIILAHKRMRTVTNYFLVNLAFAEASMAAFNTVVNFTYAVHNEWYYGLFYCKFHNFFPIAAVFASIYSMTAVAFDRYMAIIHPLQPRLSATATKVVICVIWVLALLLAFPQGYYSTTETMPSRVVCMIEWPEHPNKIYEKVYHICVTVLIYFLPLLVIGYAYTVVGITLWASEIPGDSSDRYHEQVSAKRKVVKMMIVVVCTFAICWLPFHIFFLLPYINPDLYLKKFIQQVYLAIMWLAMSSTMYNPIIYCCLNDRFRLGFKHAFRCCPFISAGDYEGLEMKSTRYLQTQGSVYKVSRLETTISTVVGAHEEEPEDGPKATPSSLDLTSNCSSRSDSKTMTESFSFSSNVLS

Row | Substance | Kd [1] [nM] | Kd [2] [nM]
1 | NK1R (from UniProt P25103) | 83 | –
2 | LcrV (from UniProt P0C7U7) | – | 20.5
